The text below walks through data of the supplement of paper PMC12636428.

Where only a bound is given, the exact number is not on record here.

The test system of the data set is Saccharomyces cerevisiae. Kind of data set: transcriptional activation domain activity (GFP:mCherry ratio, weighted mean of sorted bins, harmonized to initial dataset scale) (arbitrary fluorescence ratio units); higher = stronger transcriptional activation. Particulars: beta-estradiol 1 µM; induction time 4 h. The gist of the method:
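For this assay, yeast diploids with a GFP reporter carried barcoded protein tiles at URA3, each fused to an estradiol-inducible synthetic transcription factor. Induction was a 1:5 dilution into SC with 1 uM beta-estradiol for 4 hours at 30 °C, followed by sorting into 8 bins by GFP:mCherry ratio and barcode sequencing. Tiles under 50 reads were dropped, and activation activity was calculated as the read-weighted mean of bin median fluorescence, averaged across barcodes and linearly mapped onto the initial dataset scale.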
For the sequence “ESDAGEGDKLSKKQKAESGKAVKPEATEGADKKDKKKDKKEKKKDKEAPAKAD”, the “transcriptional activation domain activity” value is below 6570. In the case of “VRTALLKSSHDADIDATVHDQAVREFCSSLNAVTRGVNVLVMTVALLVEIYAA” it was 84400; in that of “MLQLWRLCVDNLLMAFSNYFPLVLPHATRFYLFYFWLILRGLQLTRLFCVCFM”, 85300.

Regarding “TFARHTDQKWLEEVITEALNELAGLGIVRAHLIALRWCSERITITRVYCSRLL”, the “transcriptional activation domain activity” value was 43300. The result for “YPFLLKLCFDIFLLPLHFFYFPFFFSLITHYIFFFTGTLSHLYICFILLCLFL” reads 36400. With “YILARYSIFFLYYLQFSRGYIPEYLNPTLPSYEEIESWLFLKTVWFQVLIWTV”, the “transcriptional activation domain activity” value turned out to be 65500. In the case of “SLLQSLPFPLQFLTLCFNSHLLIVIVVIIGCILESIYVGTFLWMLLRVCRWQG” it was 66500. In the case of “FVWILETLNTGFSAHAIEYFAIYNKGNMMMLWSVPWTISVSNNLLCSTLGLNH”, the “transcriptional activation domain activity” value was determined as 32200. The result for “MIGVVCALYLFFFPSFFLLFFFSTLLDDDTLIIYKFFLLWESWFVAFILFFYL” reads 24900; that for “MRHEHGGMAFNVFFLWTFMYLCLWLRVNVLCFMSISLFLMSLFFLFFLVWLSG”, 51200. For the sequence “MEILKLPFYILHVLPLPIRGALATLTPLVRFHTVVVSLSCLLSLRCIYLLFFH”, the “transcriptional activation domain activity” value was found to be 75300.

In the case of “RRRGGRGAGEGGEGEQEKGEGEQEKGEGEQERGGKGSRRRGGRGAGEGGEGEQ”, the “transcriptional activation domain activity” value was 13900. The result for “SREFLWVGFGVRCMVLAKFQVIKGLKYIRTIIAQKNQSAGLAIELRILMVVWV” reads 43800; that for “RSSKPSSRFLVLTKQKVYILVTRMVQNAPQTTIERSVGISSISSASVSTLQDD”, 29600; that for “RQNEKTETGKAEARTRRETGARKEHAKSGDRNAKENRNGERKQREHEKDKDGG”, 26000. In the case of “RLFSKQLHPRMFRVCLTLIIIVAIWGLTFICLVIFACNPVEKSWHVTMPGKCI” it was 27500. The result for “CVFLSILCLFIHLLLIVSLLLFFCHCLFFSVPITLVCFSMTIHLTPKIFILLF” reads 52700. For the sequence “RGLKNVVVLPAVGERSLASCLAGGDLDGYVIRVLRMLVWFIAFSRDTYDIYIG”, the “transcriptional activation domain activity” value worked out at 69600. In the case of “MCASVILFCLVFSSSYLLAIFKDCYLALLYYMQCWSMYYLFSDFVCHYPISKG”, the “transcriptional activation domain activity” value worked out at 72200.

Turning to “ILFIGGLFLIIAPQMTFHVPAYRIRLCEAACFLCRNFLVFLKRKSVAVIVEMF”, the “transcriptional activation domain activity” value was 59000. “AAEEAVKVAVVVEGAKKRRGRPRKDAVDEEGTVLGALADATNTQTATAAPVPM”: the “transcriptional activation domain activity” value came out at 24300. The result for “SKDEEGEGEGEGDEEKVEEGGDEDGEQVEGEDGAKSAAATASAKKFSKREKEM” reads 48900. “IRCAKGFKSTDETKIFKTGQGGMKGNMYVTLSWNRWGKLLWATRIITRDFNPV”: the “transcriptional activation domain activity” value was determined as 46000. The result for “GAGGGITSNGGGKPAAAAEGAKPASEAPKEASKPEGAKPASESPKPEGEKPAA” reads 27600; that for “MPLCSLHTYKGGWLWLWWLRWWWRNNNCEALNFSFFFFFFFFLFLFRGVDGVL”, 66000. In the case of “CQRQWADRVQMTLRQMYDLLLIEITRPRYSVFLTSGHSMEEMASVFRLIACIA” it was 44400; in that of “TKPAPKKAGGRPKKVVAEPEPAAEPSESEEPKLAPKRAGGRPKKVVAPVAEPE”, 19400; in that of “NPERRTGGRGGEGEKGRRREERDAGNRRRGGRNRAQRPKKGRRREGGRRGRGR”, 48800. In the case of “MAMGYMRFCALAISILLFREGKELTQRGSCGCLIYVCVRLEVGYYRLVFLIGY” it was 54700. In the case of “MINCYAEVALFECCVMFILSPLPPFSLSPQYIFYTLLLYLHYQYFVYRNCALL”, the “transcriptional activation domain activity” value amounted to 71500.

For “FIPLQAGIKQLIGRLSLPRHPLSNLNHLIPRHIVFTDCIWLILRQLSTLKHWA”, the “transcriptional activation domain activity” value was determined as 57800. The result for “VILGYCSLFVWFAVCGFCFLCFCVFVFLCFLFFVFFWHSSLGYLAGLAIIITF” reads 18300; that for “MPGTCTLPYYSNLPIMLVLVLIRRSNYFFFLVSLTTGSFLTTFFSLFSVRLPL”, 67000. With “TMDKQIKYFWSSPCKFISLIYFANRYIGILEAISEIARLGFIWLQNLADILLM”, the “transcriptional activation domain activity” value was determined as 43800. The result for “KAAAVVASDSDEPVEKPKPRRRNSTSSAKSGKSTKSNRSSRDKTAAGVAAGAG” reads 20700; that for “STALRTWPGLMYLSMYNFRAIKSLVASLMLPNQQARDIIIVLLYSLLRIKSPA”, 65100; that for “MSFFCLFHQLFDISCIFIYLILLENHFSLLCYLLLIFNFNCYFVIFSFLVLNF”, 54800. The result for “RPAAVLARQRERERARDARARAVRGAAPVAAAVAVRRVARHVCVACACAAAAA” reads 60400; that for “KGKQRSEGGGGNRKGGRPPRRIDEDAADSSSNDAGAEGGAKGSEPTKAAKAAS”, 33400.

As for “MIHSAIIAWYCVFGLVFLLIVICIFHQFSSHRSSPWYFIQNWTRAFGFLSYIL”, the “transcriptional activation domain activity” value was determined as 66700.

“LKQMAGRDFEDILQCIMPVFEGLLPPPHDDLVMSLLFTLAFWHALAKLRLHTE”: the “transcriptional activation domain activity” value turned out to be 56300. The result for “VFLKVYLLNPLHMTRFADLLYQGAILNRIFQPYESHLQYLLQWMCDYNLYGCA” reads 71200. For “PRVVELQKEVIAYNKRLLALNIRDHQVQYAKLNIFYCFGLFWYRVLKLLVLSA”, the “transcriptional activation domain activity” value stood at 38500.

As for “MPHTHLIFESCFFIVFSPNDLLTTDYLFFLPFPFPFPFPFLFPFPFLFPFLFL”, the “transcriptional activation domain activity” value stood at 63100. The result for “SASSNTRPREPSPEPYRKPREESRDRKRHRSRDRRRDRSPGGKKSRAREGRRD” reads 35900; that for “KAVAALRRQTGQEAVEVEVAPIRQKRRETVGATVTTARPVAGSQTGPALTQVT”, 14800; that for “KKKSKKRKEKKEKKRRSKSKKKGKKKRRSRSNSGSSSDSSSEDSSSSSSDSSD”, 50500.

“LYYTVIRLFHIYPCRDPLAANSTTFNKSLYLVWSFLCMLVYLAHISYLTLLPR”: the “transcriptional activation domain activity” value came to 54100. With “LRWVRSNWRSNLTSLSELHMWWNYPWSLYAVFQTTITQWAFLLDCLLFACFYF”, the “transcriptional activation domain activity” value came to 33700. The result for “IHLFISSFPLLFICSLPYAFLSFFPHLFISYFLSSFYSLSTHLFHSFFPFLVI” reads 59400; that for “RGINAPLIQIPLYNNDPWIQTTISDDYLLPPGWFDILFPTNFDLLKDIYLTAF”, 60600; that for “LAHCRAVVIRRVDGTAFEPVLRQAESLAVARTWLDRLFLCAYWMLTWFLADIV”, 56400. In the case of “YALIHFFRLYRSGHGPIRMFFLHIQALYNLFNLVFSWFALANLWLAFSIIIRL” it was 75800. The result for “ALLKLLVMMLWEIEFYEPCFGALRLMDYITSEICPDSNLSAEATLLRIRTLIR” reads 58200; that for “FTYMDRLQLIQAPFPWRDRMALTAITEFVATYYQNMHVDITVTMRKLGYLEKL”, 60800.
